In paper PMC8169757:

Experiments:
[1] = biological target: purified mouse NPM1 mutant mNPM1-214S/217S (mouse) (UniProt Q61937); assay: native gel or EMSA; in vitro NPM1 oligomerization assay: purified NPM1 sonicated in binding buffer (50 mM Tris pH 7.4, 150 mM NaCl, 0.5% NP-40), incubated at RT with the in vitro transcribed first ~2000 nt of LETN, 10% native PAGE, anti-NPM1 blot
[2] = biological target: purified mouse NPM1 protein (mouse) (UniProt Q61937); assay: native gel or EMSA; in vitro NPM1 oligomerization assay as a5 but without functional LETN (no RNA, scrambled RNA of similar length, or LETN lacking the three NPM1-binding fragments)
[3] = biological target: mouse NPM1 reintroduced into NPM1-/- HUH7 cells (mouse) (UniProt Q61937); assay: native gel or EMSA; native PAGE of lysates of NPM1-/- HUH7 cells with reintroduced human or mouse NPM1; control and LETN knockdown

“purified mouse NPM1 mutant mNPM1-214S/217S (from UniProt Q61937 1-292) (natural protein)” showed a stoichiometry N [1] of 5.
With “purified mouse NPM1 protein (from UniProt Q61937 1-292) (natural protein)” the stoichiometry N [2] was 5.
“mouse NPM1 reintroduced into NPM1-/- HUH7 cells (from UniProt Q61937 1-292) (natural protein)” gave a stoichiometry N [3] of 5.
